Assay [1] concerns the target T1, TEM8 on TEM8过表达细胞 (UniProt Q9H6X2 33-564, limits assumed).
T1 construct: whole, on cells; One molecule is used for cell-surface TEM8 on both cell lines; the cell line is named under assay; also called TEM8稳定过表达细胞株 (CHO-K1); TEM8过表细胞
As to the kind of experiment: cell-based assay on TEM8 overexpressing cells, anti-human-IgG-Eu fluorescence.

Assay [2] concerns the target T2, 重组TEM8蛋白(义翘神州) (human, UniProt Q9H6X2 33-321, limits assumed).
T2 construct: also called TEM8重组蛋白; recombinant TEM8 protein (Sino Biological)
T2 sequence (looked up): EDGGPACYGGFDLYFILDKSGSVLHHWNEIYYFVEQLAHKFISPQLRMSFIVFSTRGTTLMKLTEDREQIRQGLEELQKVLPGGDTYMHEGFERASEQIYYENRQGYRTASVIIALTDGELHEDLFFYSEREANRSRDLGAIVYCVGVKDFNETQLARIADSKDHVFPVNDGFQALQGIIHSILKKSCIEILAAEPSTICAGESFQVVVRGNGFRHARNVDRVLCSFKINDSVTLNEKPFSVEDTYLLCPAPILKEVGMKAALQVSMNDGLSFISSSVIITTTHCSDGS
Nature of the assay: ELISA, antibody on plate-bound TEM8 protein, anti-human IgG-HRP, OD450. Background: An ELISA detects its analyte on a solid surface through an enzyme-linked reagent.

The target in assay [3] is T1, TEM8 on TEM8过表达细胞. As to the kind of experiment: cell-based ELISA on HCT116/TEM8 cells.
The target of assay [4] is T2, 重组TEM8蛋白(义翘神州). Nature of the assay: ELISA on plate-bound TEM8 protein, method as in Example 2.

We go through three molecules from patent CN110156894A (JIANGSU NUOMAIBO BIOMEDICAL TECH CO LTD, dated 2019).

Residue numbers refer to the chain shown, from its start.

B1: HUT104 (antibody, human IgG1, kappa, V domains shown)
VH: EVQLQESGPGLVKPSETLSLTCTVTGDSISSDYWNWVRQAPGQRLEWMGYISYSGNTYTNPSLKSRITINRDTSKNQFSLQLNSVTPEDTAVYYCARYKTITSAFDVWGQGTTVTVSS
VL: EIVMTQSPATLSVSPGERATLSCRASQNIRDFLHWYQQKPGQAPRLLIYYASQSISGIPARFSGSGSGTDFTLTISSLEPEDFAVYYCQNGHSFPYTFGGGTKVEIKR
notes: also called TEM8抗体HUT104; 单克隆抗体HUT104
For orientation: EC50 means the concentration that produces a half-maximal response. A high value points to a less potent agent. Turning to B1, the EC50 with TEM8 on TEM8过表达细胞 [1] was determined as 0.105 µg/mL; in the assay with 重组TEM8蛋白(义翘神州) [2] it was 3.17 ng/mL; with TEM8 on TEM8过表达细胞 [3] it was 0.128 µg/mL; in the assay with 重组TEM8蛋白(义翘神州) [4], 1.76 ng/mL.

B2: HUT103 (antibody, human IgG1, kappa, V domains shown)
VH: B1 VH with A104V, F105L
VL: B1 VL
notes: also called TEM8抗体; 单克隆抗体HUT103
As for B2, the half-maximal effective concentration (EC50) in the assay with TEM8 on TEM8过表达细胞 [1] was 0.13 µg/mL; with 重组TEM8蛋白(义翘神州) [2], 4.53 ng/mL.

B3: HUT105 (antibody, human IgG1, kappa, V domains shown)
VH: B1 VH with A104M
VL: B1 VL
notes: also called TEM8抗体; 单克隆抗体HUT105
Turning to B3, the results for the EC50 with TEM8 on TEM8过表达细胞 [1] and with 重组TEM8蛋白(义翘神州) [2] were 0.113 µg/mL and 3.57 ng/mL, respectively.
